Laboratory results from US20230121197A1, “ANTIBODIES SPECIFICALLY BINDING THE CARBOXYMETHYLATED CATALYTIC SUBUNIT OF PROTEIN PHOSPHATASE 2A” (Medizinische Universität Wien, priority 2020, published 2023).

T1: PP2Ac C-terminal peptide meL309, ac-HVTRRTPDYFL-CH3 (α-carboxymethylated) (human, SMILES …)
T1 construct: also called Y307-meL309; mePP2Ac
T1 peptide: Ac-HVTRRTPDYFL-OMe

T2: HA-PP4c (Mus musculus, UniProt P97470)
T2 construct: expressed in transfected cells; host or cells: NIH3T3 mouse fibroblasts, retroviral pBabe hygro HA-PP4c
T2 sequence (P97470 1-307): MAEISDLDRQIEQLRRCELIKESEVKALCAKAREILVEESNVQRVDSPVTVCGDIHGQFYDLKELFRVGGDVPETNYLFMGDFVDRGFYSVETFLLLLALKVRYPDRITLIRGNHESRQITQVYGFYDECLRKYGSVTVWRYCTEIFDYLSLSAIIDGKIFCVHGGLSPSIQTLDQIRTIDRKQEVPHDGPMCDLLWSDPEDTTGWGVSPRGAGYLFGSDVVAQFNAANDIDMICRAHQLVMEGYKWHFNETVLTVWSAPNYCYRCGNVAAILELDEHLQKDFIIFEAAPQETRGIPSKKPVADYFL


Legend:
[1] = target: T1, PP2Ac C-terminal peptide meL309, …; assay: ELISA (FIG. 4)
Description: Nunc Medisorp 96-well ELISA flat-bottom plates were coated with peptides L309 (ac-[…]) (SEQ ID NO:18), meL309 (ac-[…]-CH₃) (SEQ ID NO:18) or amL309 (ac-[…]-NH₂) (SEQ ID NO:18) at 2 μg/ml in TBS at 4° C. over-night. After washing once with TBS, the wells were incubated with 2% BSA in TBS for 1 h at RT. After washing once with TBS, the wells were incubated with single clone hybridoma cell culture supernatant clone 7C10-C5 1:50 (˜1 μg/ml) in 1% BSA/TBS for 1 h at RT. After washing twice with TBS, wells were incubated with anti-mouse HRP-coupled secondary antibody for 1 h at RT, followed by washing 3× in PBS. Bound antibodies were detected by colorimetric reaction with 3,3′,5,5′-Tetramethylbenzidine as substrate, and absorbance was measured at 450 nm. Values were normalized to meL309 which was set to 1. Average and standard deviation of N=8 experiments are shown. Statistical significance was assessed using ANOVA followed by Tukey's HSD as a post-hoc test. P values are indicated with *, **, ***, which correspond to values of <0.05, <0.01, and <0.001. […]

[2] = target: T2, HA-PP4c; assay: Immunoblotting of anti-HA immunoprecipitates of NIH3T3 cells, PP4c; format: binding
Excerpt: The catalytic subunits of protein phosphatase 4 (PP4c) and 6 (PP6c) are closely related to PP2Ac with approximately 50% sequence identity. PP2Ac, PP4c and PP6c share the C-terminal DYFL or YFL motif, respectively (FIG. 8A). Therefore, a potential cross-reactivity of 7C10-C5 with α-carboxymethylated PP4c and/or PP6c was examined and compared to another anti-carboxymethyl-PP2Ac antibody 2A10. 2A10 is a carboxymethyl-PP2Ac specific antibody that has been raised against a larger C-terminal PP2Ac peptide (amino acids 302-309, carboxymethylated Leu^309) and that has been shown before to cross-react with α-carboxymethylated PP4c (Lee (2014), Biochem Biophys Res Commun 452, 42-47). HA tagged human PP2Ac a, mouse HA PP4c or mouse HA PP6c from NIH3T3 mouse fibroblasts stably expressing these HA-tagged proteins were immunoprecipitated. The precipitated proteins were then analyzed by immunoblotting with anti-carboxymethyl-PP2Ac antibodies 7C10-C5 or 2A10.
Specifically, 500 μl corresponding to 1 mg of whole cell protein lysates of NIH3T3 mouse fibroblasts were incubated with anti-hemagglutinin (HA) antibody (clone 12CA5) crosslinked to BSA-coated protein A-Sepharose beads (GE-Healthcare) to immunoprecipitate HA-epitope tagged PP2Ac, PP4c or PP6c for 1 h. […]

Row | Molecule | fold stronger binding than to the amidated C-terminal part of PP2Ac (ELISA) [1] [fold] | detection of PP4c ([2]; Western blot of HA immunoprecipitates) | binding to carboxymethylated PP2Ac stronger than to carboxymethylated PP4c ([2]; Western blot, suggested since no discernable signal)
1 | 7C10-C5 monoclonal antibody (antibody, V domains shown, Used as hybridoma culture supernatant (ELISA, Western blot, IHC) or at 50 µg/mL (SPR); also called 7C10 X63; clone 7C10-C5) VH: DVQLQESGPGLVKPSQSLSLTCSVTGYSITSGYYWNWIRQFPGNKLEWMGYISYDGSNNYNPSLKNRISITRDTSKNQFFLKLNSVTTEDTATYYCAGRFAYWGQGTLVTVSA VL: DVLMTQTPLSLPVSLGDQASISCRSSQSIVHSNGNTYLEWYLQKPGQSPKLLIYKVSNRFSGVPDRFSGSGSGTDFTLKINRVEAEDLGVYYCFQGSHVPWTFGGGTKLEIK | 6.15 | – | –
2 | 7C10-C5: α-carboxymethylation specific mouse monoclonal IgG1 antibody from single clone hybridoma 7C10-C5 (DSM ACC3350) (antibody, Amino acid sequence of the recombinant 7C10-C5 heavy chain; Amino acid sequence of the recombinant 7C10-C5 light chain) heavy: MYRMQLLSCIALSLALVTNSDVQLQESGPGLVKPSQSLSLTCSVTGYSITSGYYWNWIRQFPGNKLEWMGYISYDGSNNYNPSLKNRISITRDTSKNQFFLKLNSVTTEDTATYYCAGRFAYWGQGTLVTVSAAKTTAPSVYPLAPVCGDTTGSSVTLGCLVKGYFPEPVTLTWNSGSLSSGVHTFPAVLQSDLYTLSSSVTVTSSTWPSQSITCNVAHPASSTKVDKKIEPRGPTIKPCPPCKCPAPNLLGGPSVFIFPPKIKDVLMISLSPIVTCVVVDVSEDDPDVQISWFVNNVEVHTAQTQTHREDYNSTLRVVSALPIQHQDWMSGKEFKCKVNNKDLPAPIERTISKPKGSVRAPQVYVLPPPEEEMTKKQVTLTCMVTDFMPEDIYVEWTNNGKTELNYKNTEPVLDSDGSYFMYSKLRVEKKNWVERNSYSCSVVHEGLHNHHTTKSFSRTPGK light: MDMRVPAQLLGLLLLWLSGARCDVLMTQTPLSLPVSLGDQASISCRSSQSIVHSNGNTYLEWYLQKPGQSPKLLIYKVSNRFSGVPDRFSGSGSGTDFTLKINRVEAEDLGVYYCFQGSHVPWTFGGGTKLEIKADAAPTVSIFPPSSEQLTSGGASVVCFLNNFYPKDINVKWKIDGSERQNGVLNSWTDQDSKDSTYSMSSTLTLTKDEYERHNSYTCEATHKTSTSPIVKSFNRNEC | – | did not detect | 100-fold or even 500-fold
